“And” between values parts separate entries of the source, which are not always exact repeats. Equal values may be shown once.

The results in this text go back to patent US20250012721A1 (JIANGSU UNIVERSITY, published 2025).

The target of experiment [1] is T1, double-stranded C1r (UniProt P00736 18-705).
T1 sequence (looked up): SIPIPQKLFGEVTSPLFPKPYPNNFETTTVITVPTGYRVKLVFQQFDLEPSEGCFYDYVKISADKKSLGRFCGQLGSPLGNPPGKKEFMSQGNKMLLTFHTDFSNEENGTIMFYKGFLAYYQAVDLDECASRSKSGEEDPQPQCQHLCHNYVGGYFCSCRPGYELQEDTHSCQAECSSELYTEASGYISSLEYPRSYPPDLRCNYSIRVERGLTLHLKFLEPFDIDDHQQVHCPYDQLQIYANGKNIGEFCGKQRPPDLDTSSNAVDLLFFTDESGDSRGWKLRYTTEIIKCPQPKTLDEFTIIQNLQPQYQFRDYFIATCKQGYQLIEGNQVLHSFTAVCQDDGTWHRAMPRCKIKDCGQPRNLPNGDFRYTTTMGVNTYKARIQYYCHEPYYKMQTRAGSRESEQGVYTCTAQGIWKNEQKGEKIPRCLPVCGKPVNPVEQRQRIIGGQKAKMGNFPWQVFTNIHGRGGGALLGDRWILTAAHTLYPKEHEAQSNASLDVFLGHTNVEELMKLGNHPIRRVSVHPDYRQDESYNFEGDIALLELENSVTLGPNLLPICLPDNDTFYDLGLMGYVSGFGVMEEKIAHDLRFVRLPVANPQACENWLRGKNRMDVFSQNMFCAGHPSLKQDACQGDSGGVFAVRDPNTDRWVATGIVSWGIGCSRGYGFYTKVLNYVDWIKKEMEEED
The experiment can be described thus: cell-based or functional assay.

Experiment [2] has as its target T2, MASP1 (UniProt P48740 20-699, limits assumed).
T2 sequence (looked up): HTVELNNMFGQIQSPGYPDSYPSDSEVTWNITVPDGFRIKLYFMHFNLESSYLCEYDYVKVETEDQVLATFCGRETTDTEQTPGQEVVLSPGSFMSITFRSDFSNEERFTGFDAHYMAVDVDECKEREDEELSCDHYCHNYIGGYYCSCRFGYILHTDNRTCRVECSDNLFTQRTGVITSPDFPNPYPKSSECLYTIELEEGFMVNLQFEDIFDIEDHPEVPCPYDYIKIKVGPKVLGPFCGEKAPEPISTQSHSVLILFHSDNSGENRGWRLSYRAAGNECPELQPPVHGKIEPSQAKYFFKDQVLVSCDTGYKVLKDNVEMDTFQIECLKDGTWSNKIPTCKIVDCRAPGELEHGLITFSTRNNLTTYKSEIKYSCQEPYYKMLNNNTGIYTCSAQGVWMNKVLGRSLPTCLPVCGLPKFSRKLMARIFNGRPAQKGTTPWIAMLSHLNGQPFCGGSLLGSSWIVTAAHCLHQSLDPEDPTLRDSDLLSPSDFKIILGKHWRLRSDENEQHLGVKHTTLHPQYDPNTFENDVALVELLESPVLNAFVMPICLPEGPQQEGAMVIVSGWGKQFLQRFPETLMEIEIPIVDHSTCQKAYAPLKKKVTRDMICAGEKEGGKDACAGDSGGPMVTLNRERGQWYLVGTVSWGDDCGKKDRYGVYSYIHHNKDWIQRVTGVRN
The experiment can be described thus: cell-based or functional assay.

Experiment [3] addresses MASP2 (UniProt O00187 16-686, limits assumed). The experiment can be described thus: cell-based or functional assay.
The target of experiment [4] is T3, C1r protein (UniProt P00736 18-705).
T3 construct: also called Cir protein
T3 sequence (looked up): T1 sequence (looked up)
The experiment can be described thus: indirect ELISA, antigen coated at 1 µg/ml, Goat anti-Human IgG-HRP detection, OD 450 nm. The method, then:
In this example, the antigen-binding specificity of the C1s recombinant antibody was analyzed by an indirect ELISA method according to the principle of the specificity detection of the C1s recombinant antibody shown in FIG. 4. An analysis method included the following steps:
200 μL (1 μg/ml) of C1s antigen (single-stranded unactivated C1s protein, double-stranded activated C1s protein, or C1r protein) was added respectively to wells of a microtiter plate, and the microtiter plate was gently shaken to make the antigen cover a well bottom of the microtiter plate. Incubation was performed overnight at 4° C. After washing the plate 3 times with a warm PBS, 200 μL of a blocking solution (10 mM PBS, 1% BSA, 0.1% casein) was added to perform blocking. Incubation was next performed at 37° C. for 1 h. The plate was washed 5 times with PBS. 100 μL of the C1s recombinant antibody was added in each well (an initial concentration of a first well was 10 μg/mL, then diluted down to 7 wells according to a ratio of ¼ gradient to set up duplicate wells), incubation was performed at 37° C. for 1 h. The liquid in the microtiter plate was spin-dried, and the plate was washed with 200 μL of warm PBS 5 times. 100 μL of a diluted secondary antibody (Goat anti-Human IgG-HRP) was added to each well of the microtiter plate. […] An optical density (OD) was read at 450 nm on the microplate reader.
(In general: In an ELISA, binding on a coated surface is turned into a signal by an enzyme label.)

MASP2, sequence (O00187 16-686 limits assumed): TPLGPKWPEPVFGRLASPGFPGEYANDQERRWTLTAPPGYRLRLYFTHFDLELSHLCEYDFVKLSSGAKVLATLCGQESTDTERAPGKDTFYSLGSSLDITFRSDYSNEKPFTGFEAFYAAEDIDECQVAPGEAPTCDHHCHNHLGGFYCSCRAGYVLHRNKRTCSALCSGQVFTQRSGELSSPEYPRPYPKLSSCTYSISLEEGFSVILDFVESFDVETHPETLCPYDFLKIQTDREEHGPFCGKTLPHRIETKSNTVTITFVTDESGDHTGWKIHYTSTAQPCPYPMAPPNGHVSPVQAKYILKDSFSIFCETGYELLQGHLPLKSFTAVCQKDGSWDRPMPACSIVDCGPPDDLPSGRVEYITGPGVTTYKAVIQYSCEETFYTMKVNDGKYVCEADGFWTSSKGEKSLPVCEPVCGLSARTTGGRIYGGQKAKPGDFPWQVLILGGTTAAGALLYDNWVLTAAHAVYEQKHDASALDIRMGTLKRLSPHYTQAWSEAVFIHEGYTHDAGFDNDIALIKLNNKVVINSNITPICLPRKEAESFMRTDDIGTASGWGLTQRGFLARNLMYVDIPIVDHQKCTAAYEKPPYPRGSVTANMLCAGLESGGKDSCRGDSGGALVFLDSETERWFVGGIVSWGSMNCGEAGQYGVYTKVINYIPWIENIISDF

B1: C1s recombinant antibody (antibody, human IgG4 S228P, kappa, V domains shown)
VH: EVQLVESGGGLVKPGGSLRLSCAASGFTFSNYAMSWVRQAPGKGLEWVATISSGGSHTYYLDSVKGRFTISRDNSKNTLYLQMNSLRAEDTALYYCARLFTGYAMDYWGQGTLVTVSS
VL: QIVLTQSPATLSLSPGERATMSCTASSSVSSSYLHWYQQKPGKAPKLWIYSTSNLASGVPSRFSGSGSGTDYTLTISSLQPEDFATYYCHQYYRLPPITFGQGTKLEIKR
notes: The summary and claim 1 call the same entries variable regions; Expressed in HEK293T; also called C1s-specific recombinant antibody; recombinant anti-C1s antibody
Regarding B1, the “Cross reaction rate (%)” value was 0.15% in experiment [1], 0.04% in experiment [2] and 0.04% in experiment [3]. Moreover, the Measured concentration was 0.91 pmol/min/µg and 1 µg/mL in experiment [1]; 1.82 pmol/min/µg and 2 µg/mL in experiment [2]; 1.64 pmol/min/µg and 1.8 µg/mL in experiment [3]. For the same molecule, the binding result in experiment [4] is “no binding”.
